Key:
[1] = molecular target: Full-length plasma gelsolin Gly167Arg (human) (UniProt P06396); test: SEC-MALS; 200 µl of 4 mg/ml Gly167Arg GSN separated by gel filtration without calcium, on-line MALS, dn/dc 0.185
[2] = molecular target: Gelsolin G2 domain (amino acids 151–266) carrying the Gly167Arg mutation (human) (UniProt P06396); test: dynamic light scattering; 1 mg/ml monomer in 20 mM HEPES pH 7.4, 0.3 M NaCl, 1 mM EDTA, incubated at 4 °C; hydrodynamic radius against time, measured at 4 °C; monomer to dimer, pseudo-first-order fit
[3] = molecular target: Gelsolin G2 domain (amino acids 151–266) carrying the Gly167Arg mutation (human) (UniProt P06396); test: dynamic light scattering; 1 mg/ml monomer in 20 mM HEPES pH 7.4, 0.3 M NaCl, 1 mM CaCl2, incubated at 25 °C; hydrodynamic radius against time, measured at 4 °C; monomer to dimer, pseudo-first-order fit
[4] = molecular target: Gelsolin G2 domain (amino acids 151–266) carrying the Gly167Arg mutation (human) (UniProt P06396); test: SEC; analytical gel filtration, Superdex 75 Increase 10/300 GL; 0.5 mg/ml isolated dimer or monomer incubated in 20 mM HEPES pH 7.4, 0.3 M NaCl with 1 mM CaCl2 at 4 °C, 1 mM CaCl2 at 25 °C or 1 mM EDTA at 4 °C; time course

stoichiometry N [1] | pseudo-first-order rate constant k of the conversion of monomers to dimers [2] | pseudo-first-order rate constant k of the conversion of monomers to dimers [3] | fraction of dimers at equilibrium [4] | Substance
2 |  |  |  | Full-length plasma gelsolin Gly167Arg (from UniProt P06396 26-782) (natural protein)
 | 2.1 h⁻¹ | 0.6 h⁻¹ | 50% | Gelsolin G2 domain (amino acids 151–266) carrying the Gly167Arg mutation (from UniProt P06396 178-293) (domain or fragment)
